Reference: IntAct's records for PubMed 17167421

B1: Synaptotagmin-2 (Rattus norvegicus (Rat)), P29101 (parent)
chain: MRNIFKRNQEPIVAPATTTATMPLAPAAPADNSTESTGTGESQEDMFAKLKDKFFNEINKIPLPPWALIAMAVVAGLLLLTCCFCICKKCCCKKKKNKKEKGKGMKNAMNMKDMKGGQDDDDAETGLTEGEGEGEEEKEPENLGKLQFSLDYDFQANQLTVGVLQAAELPALDMGGTSDPYVKVFLLPDKKKKYETKVHRKTLNPAFNETFTFKVPYQELGGKTLVMAIYDFDRFSKHDIIGEVKVPMNTVDLGQPIEEWRDLQGGEKEEPEKLGDICTSLRYVPTAGKLTVCILEAKNLKKMDVGGLSDPYVKIHLMQNGKRLKKKKTTVKKKTLNPYFNESFSFEIPFEQIQKVQVVVTVLDYDKLGKNEAIGKIFVGSNATGTELRHWSDMLANPRRPIAQWHSLKPEEEVDALLGKNK

Variants of: B1
Conditions: with bxb_clobo botB

Row | Variant | effect of a mutation on the interaction
1 | MRNIFKRNQEPIVAPATTTATMPLAPAAPADNSTESTGTGESQEDMFAKLKDKFFNKINKIPLPPWALIAMAVVAGLLLLTCCFCICKKCCCKKKKNKKEKGKGMKNAMNMKDMKGGQDDDDAETGLTEGEGEGEEEKEPENLGKLQFSLDYDFQANQLTVGVLQAAELPALDMGGTSDPYVKVFLLPDKKKKYETKVHRKTLNPAFNETFTFKVPYQELGGKTLVMAIYDFDRFSKHDIIGEVKVPMNTVDLGQPIEEWRDLQGGEKEEPEKLGDICTSLRYVPTAGKLTVCILEAKNLKKMDVGGLSDPYVKIHLMQNGKRLKKKKTTVKKKTLNPYFNESFSFEIPFEQIQKVQVVVTVLDYDKLGKNEAIGKIFVGSNATGTELRHWSDMLANPRRPIAQWHSLKPEEEVDALLGKNK [E57K] | disrupting interaction strength
2 | MRNIFKRNQEPIVAPATTTATMPLAPAAPADNSTESTGTGESQEDMAAKLKDKFFNEINKIPLPPWALIAMAVVAGLLLLTCCFCICKKCCCKKKKNKKEKGKGMKNAMNMKDMKGGQDDDDAETGLTEGEGEGEEEKEPENLGKLQFSLDYDFQANQLTVGVLQAAELPALDMGGTSDPYVKVFLLPDKKKKYETKVHRKTLNPAFNETFTFKVPYQELGGKTLVMAIYDFDRFSKHDIIGEVKVPMNTVDLGQPIEEWRDLQGGEKEEPEKLGDICTSLRYVPTAGKLTVCILEAKNLKKMDVGGLSDPYVKIHLMQNGKRLKKKKTTVKKKTLNPYFNESFSFEIPFEQIQKVQVVVTVLDYDKLGKNEAIGKIFVGSNATGTELRHWSDMLANPRRPIAQWHSLKPEEEVDALLGKNK [F47A] | disrupting interaction strength
3 | MRNIFKRNQEPIVAPATTTATMPLAPAAPADNSTESTGTGESQEDMFAKLKDKAFNEINKIPLPPWALIAMAVVAGLLLLTCCFCICKKCCCKKKKNKKEKGKGMKNAMNMKDMKGGQDDDDAETGLTEGEGEGEEEKEPENLGKLQFSLDYDFQANQLTVGVLQAAELPALDMGGTSDPYVKVFLLPDKKKKYETKVHRKTLNPAFNETFTFKVPYQELGGKTLVMAIYDFDRFSKHDIIGEVKVPMNTVDLGQPIEEWRDLQGGEKEEPEKLGDICTSLRYVPTAGKLTVCILEAKNLKKMDVGGLSDPYVKIHLMQNGKRLKKKKTTVKKKTLNPYFNESFSFEIPFEQIQKVQVVVTVLDYDKLGKNEAIGKIFVGSNATGTELRHWSDMLANPRRPIAQWHSLKPEEEVDALLGKNK [F54A] | disrupting interaction strength
4 | MRNIFKRNQEPIVAPATTTATMPLAPAAPADNSTESTGTGESQEDMFAKAKDKFFNEINKIPLPPWALIAMAVVAGLLLLTCCFCICKKCCCKKKKNKKEKGKGMKNAMNMKDMKGGQDDDDAETGLTEGEGEGEEEKEPENLGKLQFSLDYDFQANQLTVGVLQAAELPALDMGGTSDPYVKVFLLPDKKKKYETKVHRKTLNPAFNETFTFKVPYQELGGKTLVMAIYDFDRFSKHDIIGEVKVPMNTVDLGQPIEEWRDLQGGEKEEPEKLGDICTSLRYVPTAGKLTVCILEAKNLKKMDVGGLSDPYVKIHLMQNGKRLKKKKTTVKKKTLNPYFNESFSFEIPFEQIQKVQVVVTVLDYDKLGKNEAIGKIFVGSNATGTELRHWSDMLANPRRPIAQWHSLKPEEEVDALLGKNK [L50A] | decreasing interaction strength
5 | MRNIFKRNQEPIVAPATTTATMPLAPAAPADNSTESTGTGESQEDMFAKLKDKFANEINKIPLPPWALIAMAVVAGLLLLTCCFCICKKCCCKKKKNKKEKGKGMKNAMNMKDMKGGQDDDDAETGLTEGEGEGEEEKEPENLGKLQFSLDYDFQANQLTVGVLQAAELPALDMGGTSDPYVKVFLLPDKKKKYETKVHRKTLNPAFNETFTFKVPYQELGGKTLVMAIYDFDRFSKHDIIGEVKVPMNTVDLGQPIEEWRDLQGGEKEEPEKLGDICTSLRYVPTAGKLTVCILEAKNLKKMDVGGLSDPYVKIHLMQNGKRLKKKKTTVKKKTLNPYFNESFSFEIPFEQIQKVQVVVTVLDYDKLGKNEAIGKIFVGSNATGTELRHWSDMLANPRRPIAQWHSLKPEEEVDALLGKNK [F55A] | disrupting interaction strength
